Measurements as given in paper PMC8503523, “Lilium regale Wilson WRKY2 Regulates Chitinase Gene Expression During the Response to the Root Rot Pathogen Fusarium oxysporum”.
Where a chain is given by its changes, count along the chain named.

Tests used:
[1] = molecular target: T1, LrWRKY2 (Lilium regale Wilson, UniProt A0A894THB0 1-343); assay: EMSA; 0.5 ug protein in 20 uL with 7 uL binding buffer (as printed: 100 mM Tris, 500 mM KCl, 10 mM DTT, 50% glycerol, 100 mM MgCl2, 1% NP-40, 1 M KCl, 200 mM EDTA, 1); conditions: protein: recombinant, tags: His (pET-32a fusion)
T1 sequence: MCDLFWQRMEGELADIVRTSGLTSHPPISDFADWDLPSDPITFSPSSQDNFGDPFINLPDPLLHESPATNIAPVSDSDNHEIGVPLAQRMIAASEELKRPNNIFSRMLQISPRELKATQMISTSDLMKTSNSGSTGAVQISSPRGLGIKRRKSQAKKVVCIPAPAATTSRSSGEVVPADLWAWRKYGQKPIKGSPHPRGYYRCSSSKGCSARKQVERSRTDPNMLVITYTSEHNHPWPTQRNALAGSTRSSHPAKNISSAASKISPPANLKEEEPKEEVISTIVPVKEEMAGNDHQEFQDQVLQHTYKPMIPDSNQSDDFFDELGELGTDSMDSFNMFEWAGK

[2] = molecular target: T1, LrWRKY2; assay: competition EMSA; 50-fold excess over biotin-labeled N1; shift less intense; 0.5 ug protein in 20 uL with 7 uL binding buffer (as printed: 100 mM Tris, 500 mM KCl, 10 mM DTT, 50% glycerol, 100 mM MgCl2, 1% NP-40, 1 M KCl, 200 mM EDTA, 1); conditions: protein: recombinant; tags: His (pET-32a fusion); (only one strand printed; duplex implied by 50-bp)

B1: LrCHI2 promoter W-box probe (dsDNA)
DNA 1: GGCAAACTTTTAGGCCAAGAGATTGACTAGAACCCTCACAATCTCTATAT
DNA 2: ATATAGAGATTGTGAGGGTTCTAGTCAATCTCTTGGCCTAAAAGTTTGCC
B1: binds ([1]; (only one strand printed; duplex implied by 50-bp)).

B2: LrCHI2 promoter W-box competitor, unlabeled (dsDNA)
DNA 1: B1 DNA 1
DNA 2: B1 DNA 2
B2: binds [2].

B3: LrCHI2 promoter mutant W-box probe (dsDNA)
DNA 1: B1 DNA 1 with G25A, A26C
DNA 2: B1 DNA 2 with T25G, C26T
B3: no binding [1].
